This series in a line: protein stability index of a GFP-peptide fusion (GPS, HEK-293T) (PSI 1-6); higher = more stable. The settings on record: c terminus: a fixed tail appended.

± gives the standard deviation.
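Note: 24-mer peptide tiles fused after GFP, lentivirally expressed, FACS-sorted into six equal bins by GFP/DsRed ratio, decoded by Illumina sequencing, PSI is the read-weighted mean bin number.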

Take GACPGADEAGGGAEGDSWEEEGFG [WEE1]: the protein stability index stood at 5.35 ± 0.24 (treatment: DMSO) and 5.54 ± 0.21 (treatment: MLN4924 1 uM, 8 h).
As for GAGAGSSLLDVAEPGGPGWLPESD [SMAD6], the protein stability index runs as follows: (treatment: DMSO) 5.23 ± 0.19; (treatment: MLN4924 1 uM, 8 h) 5.01 ± 0.25.
On the same counts, the results for GASHVLALSTERELFAWGRGDSGR [NEK8] are 3.38 ± 0.31 and 3.42 ± 0.26.
For GCANNLLVHHRAAHSNEILIFSVQ [KLHDC2] the same measures were 2.49 ± 1 and 2.67 ± 0.58.
On the same counts, the results for GCEDEYLVNPTCQVLVKDFTFEGF [ZER1] are 2.89 ± 0.47 and 2.85 ± 0.4.
As to GCFRSQGASLRLAVEDGLQQFKQY [M1AP], the protein stability index by setting is: (treatment: DMSO) 2.88 ± 0.68; (treatment: MLN4924 1 uM, 8 h) 2.78 ± 0.074.
For GCSLHEEDTQRHETYHQQGQCQVL [TCAP] the same measures were 4.35 ± 0.14 and 4.32 ± 0.41.
For GCSSTQGNGRPGRPSQYRPDGLRS [LCOR] the same measures were 4.07 ± 0.085 and 4.14 ± 0.17.
On the same counts, the results for GDKNEEQVLNAIEAYTEHRPEITS [ZER1] are 5.33 ± 0.2 and 5.16 ± 0.22.
Take GDVCYADVYRDGTGVVEFVRKEDM [SRSF1]: the protein stability index turned out to be 4.22 ± 0.26 (treatment: DMSO) and 4.37 ± 0.042 (treatment: MLN4924 1 uM, 8 h).
Regarding GEDQWNPNGKHSTNFVSRYDPRFN [KLHL14], the protein stability index reads like this: (treatment: DMSO) 3.83 ± 0.23; (treatment: MLN4924 1 uM, 8 h) 3.57 ± 0.41.
For GEEQVELSTIEELIKDAIVSTQPA [C2CD2L] the same measures were 4.69 ± 0.3 and 4.7 ± 0.16.
In the case of GFGSKNTAFCTHVFPETAFIAVTS [TBX5], the protein stability index by setting is: (treatment: DMSO) 2.28 ± 0.42; (treatment: MLN4924 1 uM, 8 h) 2.09 ± 0.3.
For GFKHRLWVYSGRRGVHCWVCDESV [PRIM1] the same measures were 2.81 ± 1.4 and 2.31 ± 0.59.
For GFVDLLDGENLKNEEETPSCMASL [CDC25A] the same measures were 4.64 ± 0.25 and 4.62 ± 0.13.
On the same counts, the results for GGFMGYSAENIPGCSSSGSCSQGS [CRY1] are 4.14 ± 0.3 and 4.4 ± 0.28.
For GGGYSSVRYSDCCERVVINVSGLR [KCNA4], the protein stability index is 2.23 ± 0.26 (treatment: DMSO) and 2.34 ± 0.29 (treatment: MLN4924 1 uM, 8 h).
On the same counts, the results for GGHTREARIQTLEPDNWMKEVMLF [RSAD1] are 2.51 ± 0.25 and 2.34 ± 0.34.
On the same counts, the results for GGIQEGAVTPAGVVNKYQINGLQA [DHCR7] are 3.93 ± 0.27 and 4.17 ± 0.22.
For GGLGTPLRLPMLNTEVVQVAAGRT [NEK8], the protein stability index runs as follows: (treatment: DMSO) 4.11 ± 0.35; (treatment: MLN4924 1 uM, 8 h) 4.06 ± 0.31.
Turning to GGPADLAGLEDEDVIIEVNGVNVL [PDZK1], the protein stability index (treatment: MLN4924 1 uM, 8 h) came to 4.46 ± 0.32.
On to GGQEEASQEAGLPAGAGPSPTFPA [SEPHS2], for which the protein stability index came to 5.56 ± 0.1 (treatment: DMSO) and 5.25 ± 0.23 (treatment: MLN4924 1 uM, 8 h).
On the same counts, the results for GGRTALHHAALNGHVEMVNLLLAK [ANKRD44] are 2.76 ± 0.35 and 2.69 ± 0.23.
On the same counts, the results for GGTPIRGALQIEQSEESDQGKYEC [PTPRD] are 5.57 ± 0.38 and 5.4 ± 0.31.
On the same counts, the results for GGYETFYSEYPECCVDVKPISQEK [DUSP5] are 4.25 ± 0.29 and 4.22 ± 0.18.
Regarding GHSSSVEMFLYFEDHGLVTCSADH [WDR41], the protein stability index by setting is: (treatment: DMSO) 2.16 ± 0.34; (treatment: MLN4924 1 uM, 8 h) 2.25 ± 0.29.
Regarding GIENEEDTSKQKKMETMYPFIVTL [ZNF449], the protein stability index turned out to be 2.39 ± 0.38 (treatment: DMSO) and 2.36 ± 0.1 (treatment: MLN4924 1 uM, 8 h).
On the same counts, the results for GIGGGIGGGSSRISSVLAGGSCRA [KRT16] are 3.87 ± 0.23 and 4.05 ± 0.24.
In turn, GILGFNSAEWFITAVGAILAGGLC [ACSBG2] gave a protein stability index (treatment: MLN4924 1 uM, 8 h) of 3.62 ± 0.54.
In the case of GKDEIEAAVKAAREAFPSWSSRSP [ALDH8A1], the protein stability index is 4.5 ± 0.32 (treatment: DMSO) and 4.29 ± 0.23 (treatment: MLN4924 1 uM, 8 h).
On the same counts, the results for GKEVSGDQIEDMFEQGKWDVFSEN [STX11] are 4.33 ± 0.31 and 4.31 ± 0.35.
GKFIRLKNTSEQDQPMGGWEMIRK [LMNB1]: the protein stability index came to 3.73 ± 0.083 (treatment: DMSO) and 3.7 ± 0.2 (treatment: MLN4924 1 uM, 8 h).
For GKKRCKDIKRLLVNFMYLQSLLQP [SMG5] the same measures were 2.428 ± 0.007 and 2.48 ± 0.41.
For GKPGDRNCPEFPPPDRTLGCWATD [RSPH3] the same measures were 4.03 ± 0.28 and 4.32 ± 0.24.
On the same counts, the results for GLADVEANYVIVRAYQYTTLTSVQ [SLC35F2] are 2.24 ± 0.53 and 2.66 ± 0.43.
Sequence GLPGKVFACLSVLFVTVTAVNLSV [KCNG1] displayed a protein stability index (treatment: DMSO) of 3.36 ± 0.17 and a protein stability index (treatment: MLN4924 1 uM, 8 h) of 3.053 ± 0.022.
Regarding GLSGSGVAFVCAFSEALAEGAVKM [PYCR3], the protein stability index amounted to 2.58 ± 0.65 (treatment: DMSO) and 2.25 ± 0.34 (treatment: MLN4924 1 uM, 8 h).

The record behind these values is the supplement of paper PMC10567573.
